Measurements: patent publication CN114028561A (JIANGSU QYUNS BIOMEDICAL CO LTD, dated 2022)

B1: Tezepelumab (antibody, V domains shown)
VH: QMQLVESGGGVVQPGRSLRLSCAASGFTFRTYGMHWVRQAPGKGLEWVAVIWYDGSNKHYADSVKGRFTITRDNSKNTLNLQMNSLRAEDTAVYYCARAPQWELVHEAFDIWGQGTMVTVSS
VL: SYVLTQPPSVSVAPGQTARITCGGNNLGSKSVHWYQQKPGQAPVLVVYDDSDRPSWIPERFSGSNSGNTATLTISRGEAGDEADYYCQVWDSSSDHVVFGGGTKLTVLG
B2: QX008N(HZD8G2-57) (antibody, human IgG1, kappa, V domains shown)
VH: EVQLVESGGGLVQPGGSLRLSCAASGFSLSSYYMSWVRQAPGKGLEWVGFISYGGSAYHATWAQGRFTISKDNSKNTLYLQMNSLRAEDTAVYYCAREFRSMTYGAEWGIWGQGTLVTVSS
VL: AYQMTQSPSSVSASVGDRVTITCQASESIYDTLAWYQQKPGKAPKLLIYSASSLASGVPSRFSGSGSGTDFTLTISSLQPEDFATYYCQQGYTMPDVDKNPFGGGTKVEIKR
notes: also called 抗人TSLP单克隆抗体

Key:
[1] = molecular target: 食蟹猴TSLP (食蟹猴 (cynomolgus monkey), UniProt A0A7N9CAT7 29-159); assay: cell-based or functional assay
[2] = molecular target: T1, 人胸腺基质淋巴细胞生成素(Human Thymic Stromal Lymphopoietin, TSLP) (human, UniProt Q969D9 29-159); assay: cell-based or functional assay
[3] = molecular target: 天然TSLP; assay: cell-based or functional assay
[4] = molecular target: T1, 人胸腺基质淋巴细胞生成素(Human Thymic Stromal …); assay: SPR (Biacore T200), antibody captured on Protein A chip, human TSLP as analyte, 25℃, 1:1 model, mean of three runs

Sequence of 食蟹猴TSLP (A0A7N9CAT7 entry or part of it): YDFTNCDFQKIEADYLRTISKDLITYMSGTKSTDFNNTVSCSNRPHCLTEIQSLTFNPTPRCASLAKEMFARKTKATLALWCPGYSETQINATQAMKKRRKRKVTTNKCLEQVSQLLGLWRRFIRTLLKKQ

Binder	IC50 of inhibition of cynomolgus TSLP-induced STAT5 phosphorylation in SW756-STAT5-Luciferase reporter cells [1] [ng/mL]	IC50 of inhibition of human TSLP-induced STAT5 phosphorylation in SW756-STAT5-Luciferase reporter cells [2] [ng/mL]	IC50 of inhibition of human TSLP-induced TARC (CCL17) release from human PBMC [2] [ng/mL]	IC50 of inhibition of human TSLP-induced TARC (CCL17) release from human whole blood [2] [ng/mL]	IC50 of inhibition of natural TSLP-induced STAT5 phosphorylation in SW756-STAT5-Luciferase reporter cells [3] [ng/mL]	Kd [4] [nM]	koff [4] [s⁻¹]	kon [4] [M⁻¹ s⁻¹]
B1	1.88							
B2	0.889	0.837	77.1	0.839	0.462	0.0175	2.99e-05	1.74e+06
